Test results reported in patent US20200399343A1.

B1: US11 (protein)
chain: MPELSLTLFDEPPPLVETEPLPPLSDVSEYRVEYSEARCVLRSGGRLEALWTLRGNLSVPTPTPRVYYQTLEGYADRVPTPVEDVSESLVAKRYWLRDYRVPQRTKLVLFYFSPCHQCQTYYVECEPRCLVPWVPLWSSLEDIERLLFEDRRLMAYYALTIKSAQYTLMMVAVIQVFWGLYVKGWLHRHFPWMFSDQW
B2: US2 (protein)
chain: MNNLWKAWVGLWTSMGPLIRLPDGITKAGEDALRPWKSTAKHPWFQIEDNRCYIDNGKLFARGSIVGNMSRFVFDPKADYGGVGENLYVHADDVEFVPGESLKWNVRNLDVMPIFETLALRLVLQGDVIWLRCVPELRVDYTSSAYMWNMQYGMVRKSYTHVAWTIVFYSINITLLVLFIVYVTVDCNLSMMWMRFFVC
B3: US6 (protein)
chain: ERSSRDPKTLLSLSPRQQACVPRTKSHRPVCYNDTGDCTDADDSWKQLGEDFAHQCLQAAKKRPKTHKSRPNDRNLEGRLTCQRVRRLLPCDLDIHPSHRLLTLMNNCVCDGAVWNAFRLIERHGFFAVTLYLCCGITLLVVILALLCSITYESTGRGIRR
B4: E19 (protein)
chain: TTQKVDFKEPACNVTFAAEANECTTLIKCTTEHEKLLIRHKNKIGKYAVYAIWQPGDTTEYNVTVFQGKSHKTFMYTFPFYEMCDITMYMSKQYKLWPPQNCVENTGTFCCTAMLITVLALVCTLLYIKYKSRRSFIEEKKMP
B5: ICP47 (protein)
chain: MSWALEMADTFLDTMRVGPRTYADVRDEINKRGREDREAARTAVHDPERPLLRSPGLLPEIAPNASLGVAHRRTGGTVTDSPRNPVTR

Tests used:
[1] = biological target: major histocompatibility complex (MHC) Class I
[2] = biological target: major histocompatibility complex (MHC) Class I; remark: listed apart in the source

| Molecule | MHC Class I expression (MFI HLA A/B/C) on transduced Jurkat cells (MFI HLA A/B/C) [1] | MHC Class I expression (MFI HLA A/B/C) on transduced primary T cells (MFI HLA A/B/C) [2] |
| --- | --- | --- |
| US3 | 5320 | 13000 |
| K3 | 2170 | 10900 |
| K5 | 661 | 4480 |
| B1 | 8080 | 14600 |
| B2 | 6080 | 14500 |
| B3 | 1720 | 9500 |
| B4 | 3430 | 14800 |
| B5 | 2060 | 5940 |
